Results as given in patent US20180155451A1 (published 2018).

T1: FcγRIIb (human, UniProt P31994 43-217)
T1 construct: extracellular domain; Soluble extracellular domain with C-terminal His tag, expressed in FreeStyle293 cells; also called FcgRIIb; 2b; not shown: C-terminal His tag
T1 sequence (looked up): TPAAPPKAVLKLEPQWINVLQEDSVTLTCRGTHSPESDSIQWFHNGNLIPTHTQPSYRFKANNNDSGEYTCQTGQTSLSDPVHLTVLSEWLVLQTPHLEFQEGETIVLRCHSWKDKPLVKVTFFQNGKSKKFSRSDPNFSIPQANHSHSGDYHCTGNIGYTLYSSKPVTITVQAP

T2: FcγRIIa H (human, UniProt P12318 34-217)
T2 construct: extracellular domain; Soluble extracellular domain with C-terminal His tag, expressed in FreeStyle293 cells; also called FcgRIIa H; 2aH; not shown: C-terminal His tag
T2 sequence (looked up): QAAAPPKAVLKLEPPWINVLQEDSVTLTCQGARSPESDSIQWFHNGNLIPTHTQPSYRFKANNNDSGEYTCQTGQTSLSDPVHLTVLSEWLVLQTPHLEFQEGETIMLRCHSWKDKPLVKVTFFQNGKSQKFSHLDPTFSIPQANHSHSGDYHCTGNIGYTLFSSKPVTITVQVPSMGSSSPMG


Tests used:
[1] = target: T1, FcγRIIb; test: SPR (Biacore), antibody captured, FcγR as analyte; relative to HeCon Ab
Protocol: (§1) The heterodimerized antibodies He Abs in which one of the H chains was introduced with an alteration were assayed for their binding activities to each activating FcγR and inhibitory FcγR according to the method described in Example 4. […] The activating FcγRs in FIGS. 26, 27, 28, and 29 are FcγRIa, FcγRIIa (R), FcγRIIa (H), and FcγRIIIa, respectively.
(§2) Analysis of interaction between objective antibody and the FcγR was carried out using Biacore T100 (GE Healthcare). HBS-EP+ (GE Healthcare) was used as the running buffer, and the measurement temperature was set to 25° C. Chips produced by immobilizing the antigen peptide by the amine coupling method to a Series S Sencor Chip CM5 (GE Healthcare), or alternatively, chips produced by allowing preliminarily biotinylated antigen peptides to interact with and immobilize onto a Series S Sensor Chip SA (certified) (GE Healthcare) were used. Antibodies of interest were captured onto an antigen peptide-immobilized chip, and allowed to interact to each FcγR diluted with running buffer. To regenerate and repeatedly use the chip, the antibodies captured on the chip were washed off by reacting 10 mM glycine-HCl, pH 1.5.

[2] = target: T2, FcγRIIa H; test: as above
Protocol: as §1, §2

Row | Binder | He/Con_2b [1] | He/Con_2aH [2]
1 | GpH7-A5/GpH7-B3 variant G237_02A/GpL16-k0 (antibody, human IgG1, kappa, Heterodimerized anti-glypican-3 IgG1; alteration in the GpH7-B3 chain only; also called He Ab) heavy 1: not shown heavy 2: not shown light: DIVMTQSPLSLPVTPGEPASISCQASESLVHSNRNTYLHWYLQKPGQSPQLLIYKVSNRFSGVPDRFSGSGSGTDFTLKISRVEAEDVGVYYCSQNTHVPPTFGQGTKVEIERTVAAPSVFIFPPSDEQLKSGTASVVCLLNNFYPREAKVQWKVDNALQSGNSQESVTEQDSKDSTYSLSSTLTLSKADYEKHKVYACEVTHQGLSSPVTKSFNRGEC | 124 % of GpH7-A5/GpH7-B3/GpL16-k0 (=100) | 34 % of GpH7-A5/GpH7-B3/GpL16-k0 (=100)
2 | GpH7-A5/GpH7-B3 variant G237_13S/GpL16-k0 (antibody, human IgG1, kappa, Heterodimerized anti-glypican-3 IgG1; alteration in the GpH7-B3 chain only; also called He Ab) heavy 1: not shown heavy 2: not shown light: DIVMTQSPLSLPVTPGEPASISCQASESLVHSNRNTYLHWYLQKPGQSPQLLIYKVSNRFSGVPDRFSGSGSGTDFTLKISRVEAEDVGVYYCSQNTHVPPTFGQGTKVEIERTVAAPSVFIFPPSDEQLKSGTASVVCLLNNFYPREAKVQWKVDNALQSGNSQESVTEQDSKDSTYSLSSTLTLSKADYEKHKVYACEVTHQGLSSPVTKSFNRGEC | 111 % of GpH7-A5/GpH7-B3/GpL16-k0 (=100) | 29.8 % of GpH7-A5/GpH7-B3/GpL16-k0 (=100)
3 | GpH7-A5/GpH7-B3 variant G237_20W/GpL16-k0 (antibody, human IgG1, kappa, Heterodimerized anti-glypican-3 IgG1; alteration in the GpH7-B3 chain only; also called He Ab) heavy 1: not shown heavy 2: not shown light: DIVMTQSPLSLPVTPGEPASISCQASESLVHSNRNTYLHWYLQKPGQSPQLLIYKVSNRFSGVPDRFSGSGSGTDFTLKISRVEAEDVGVYYCSQNTHVPPTFGQGTKVEIERTVAAPSVFIFPPSDEQLKSGTASVVCLLNNFYPREAKVQWKVDNALQSGNSQESVTEQDSKDSTYSLSSTLTLSKADYEKHKVYACEVTHQGLSSPVTKSFNRGEC | 193 % of GpH7-A5/GpH7-B3/GpL16-k0 (=100) | 31.6 % of GpH7-A5/GpH7-B3/GpL16-k0 (=100)
4 | GpH7-A5/GpH7-B3 variant G237_14T/GpL16-k0 (antibody, human IgG1, kappa, Heterodimerized anti-glypican-3 IgG1; alteration in the GpH7-B3 chain only; also called He Ab) heavy 1: not shown heavy 2: not shown light: DIVMTQSPLSLPVTPGEPASISCQASESLVHSNRNTYLHWYLQKPGQSPQLLIYKVSNRFSGVPDRFSGSGSGTDFTLKISRVEAEDVGVYYCSQNTHVPPTFGQGTKVEIERTVAAPSVFIFPPSDEQLKSGTASVVCLLNNFYPREAKVQWKVDNALQSGNSQESVTEQDSKDSTYSLSSTLTLSKADYEKHKVYACEVTHQGLSSPVTKSFNRGEC | 54.8 % of GpH7-A5/GpH7-B3/GpL16-k0 (=100) | 31.8 % of GpH7-A5/GpH7-B3/GpL16-k0 (=100)
5 | GpH7-A5/GpH7-B3 variant G237_03V/GpL16-k0 (antibody, human IgG1, kappa, Heterodimerized anti-glypican-3 IgG1; alteration in the GpH7-B3 chain only; also called He Ab) heavy 1: not shown heavy 2: not shown light: DIVMTQSPLSLPVTPGEPASISCQASESLVHSNRNTYLHWYLQKPGQSPQLLIYKVSNRFSGVPDRFSGSGSGTDFTLKISRVEAEDVGVYYCSQNTHVPPTFGQGTKVEIERTVAAPSVFIFPPSDEQLKSGTASVVCLLNNFYPREAKVQWKVDNALQSGNSQESVTEQDSKDSTYSLSSTLTLSKADYEKHKVYACEVTHQGLSSPVTKSFNRGEC | 61.4 % of GpH7-A5/GpH7-B3/GpL16-k0 (=100) | 39.4 % of GpH7-A5/GpH7-B3/GpL16-k0 (=100)

Second part, the binder after the results:

Row | He/Con_2b [1] | He/Con_2aH [2] | Binder
6 | 80 % of GpH7-A5/GpH7-B3/GpL16-k0 (=100) | 57.6 % of GpH7-A5/GpH7-B3/GpL16-k0 (=100) | GpH7-A5/GpH7-B3 variant P238_07I/GpL16-k0 (antibody, human IgG1, kappa, Heterodimerized anti-glypican-3 IgG1; alteration in the GpH7-B3 chain only; also called He Ab) heavy 1: not shown heavy 2: not shown light: DIVMTQSPLSLPVTPGEPASISCQASESLVHSNRNTYLHWYLQKPGQSPQLLIYKVSNRFSGVPDRFSGSGSGTDFTLKISRVEAEDVGVYYCSQNTHVPPTFGQGTKVEIERTVAAPSVFIFPPSDEQLKSGTASVVCLLNNFYPREAKVQWKVDNALQSGNSQESVTEQDSKDSTYSLSSTLTLSKADYEKHKVYACEVTHQGLSSPVTKSFNRGEC
7 | 232 % of GpH7-A5/GpH7-B3/GpL16-k0 (=100) | 77.1 % of GpH7-A5/GpH7-B3/GpL16-k0 (=100) | GpH7-A5/GpH7-B3 variant P238_10E/GpL16-k0 (antibody, human IgG1, kappa, Heterodimerized anti-glypican-3 IgG1; alteration in the GpH7-B3 chain only; also called He Ab) heavy 1: not shown heavy 2: not shown light: DIVMTQSPLSLPVTPGEPASISCQASESLVHSNRNTYLHWYLQKPGQSPQLLIYKVSNRFSGVPDRFSGSGSGTDFTLKISRVEAEDVGVYYCSQNTHVPPTFGQGTKVEIERTVAAPSVFIFPPSDEQLKSGTASVVCLLNNFYPREAKVQWKVDNALQSGNSQESVTEQDSKDSTYSLSSTLTLSKADYEKHKVYACEVTHQGLSSPVTKSFNRGEC
8 | 56 % of GpH7-A5/GpH7-B3/GpL16-k0 (=100) | 37.3 % of GpH7-A5/GpH7-B3/GpL16-k0 (=100) | GpH7-A5/GpH7-B3 variant P238_01G/GpL16-k0 (antibody, human IgG1, kappa, Heterodimerized anti-glypican-3 IgG1; alteration in the GpH7-B3 chain only; also called He Ab) heavy 1: not shown heavy 2: not shown light: DIVMTQSPLSLPVTPGEPASISCQASESLVHSNRNTYLHWYLQKPGQSPQLLIYKVSNRFSGVPDRFSGSGSGTDFTLKISRVEAEDVGVYYCSQNTHVPPTFGQGTKVEIERTVAAPSVFIFPPSDEQLKSGTASVVCLLNNFYPREAKVQWKVDNALQSGNSQESVTEQDSKDSTYSLSSTLTLSKADYEKHKVYACEVTHQGLSSPVTKSFNRGEC
9 | 106 % of GpH7-A5/GpH7-B3/GpL16-k0 (=100) | 75.8 % of GpH7-A5/GpH7-B3/GpL16-k0 (=100) | GpH7-A5/GpH7-B3 variant L235_09D/GpL16-k0 (antibody, human IgG1, kappa, Heterodimerized anti-glypican-3 IgG1; alteration in the GpH7-B3 chain only; also called He Ab) heavy 1: not shown heavy 2: not shown light: DIVMTQSPLSLPVTPGEPASISCQASESLVHSNRNTYLHWYLQKPGQSPQLLIYKVSNRFSGVPDRFSGSGSGTDFTLKISRVEAEDVGVYYCSQNTHVPPTFGQGTKVEIERTVAAPSVFIFPPSDEQLKSGTASVVCLLNNFYPREAKVQWKVDNALQSGNSQESVTEQDSKDSTYSLSSTLTLSKADYEKHKVYACEVTHQGLSSPVTKSFNRGEC
